We go through ten molecules from US20160009819A1 (SHIONOGI, published 2016).

Where a chain is given by its changes, count along the chain named.

The target of one test is T1, mouse EL with C2 tag (mouse, UniProt Q9WVG5 21-500).
T1 construct: Heparin extract of transfected HEK293F cells; also called mouse E1; not shown: C2 tag
T1 sequence (looked up): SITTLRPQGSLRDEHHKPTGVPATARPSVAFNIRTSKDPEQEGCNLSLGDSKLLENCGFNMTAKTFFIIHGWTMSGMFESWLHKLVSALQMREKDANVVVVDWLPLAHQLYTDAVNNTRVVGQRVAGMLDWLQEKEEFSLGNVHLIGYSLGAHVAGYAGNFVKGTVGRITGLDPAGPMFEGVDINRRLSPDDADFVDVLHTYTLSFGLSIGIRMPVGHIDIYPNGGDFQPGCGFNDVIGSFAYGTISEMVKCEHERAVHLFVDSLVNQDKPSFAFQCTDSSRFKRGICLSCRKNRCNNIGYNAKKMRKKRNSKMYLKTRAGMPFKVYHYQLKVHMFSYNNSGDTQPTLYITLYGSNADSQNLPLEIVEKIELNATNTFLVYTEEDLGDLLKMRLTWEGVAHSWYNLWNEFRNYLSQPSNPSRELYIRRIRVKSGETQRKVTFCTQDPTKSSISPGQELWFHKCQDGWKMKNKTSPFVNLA
In words: ELISA: antibody captured on anti-mouse IgG-Fc plate, C2-tagged EL heparin extract added, anti-C2-tag detection, A450 (Example 8). The protocol:
(§1) Assay buffer containing 15 μl of anti-EL antibody was added to anti-mouse IgG-Fc antibody-immobilized microtiter plate, and incubated for 2 hr. […] After washing the wells three times with 90 μL, of washing buffer, 15 μl of assay buffer containing biotin-labeled anti-C2-tag antibody and HRP-labeled Streptavidin were added to the wells and incubated at room temperature for 1 hr. After washing the wells three times with 90 μL of washing buffer, 15 μL of TMB+-Substrate-Chromogen (DAKO) was added and incubated at room temperature for 30 min and then 15 μL of 0.05 M H2SO₄ was added and absorbance at 450 nm was measured (FIG. 3A-3K).
Background: In an ELISA, binding on a coated surface is turned into a signal by an enzyme label.

The target in test [1] is T2, baboon EL (vascular endothelial lipase) with C2 tag (baboon, UniProt Q9Y5X9 21-500 (human entry), limits assumed).
T2 construct: also called baboon EL-C2 tag
T2 chain: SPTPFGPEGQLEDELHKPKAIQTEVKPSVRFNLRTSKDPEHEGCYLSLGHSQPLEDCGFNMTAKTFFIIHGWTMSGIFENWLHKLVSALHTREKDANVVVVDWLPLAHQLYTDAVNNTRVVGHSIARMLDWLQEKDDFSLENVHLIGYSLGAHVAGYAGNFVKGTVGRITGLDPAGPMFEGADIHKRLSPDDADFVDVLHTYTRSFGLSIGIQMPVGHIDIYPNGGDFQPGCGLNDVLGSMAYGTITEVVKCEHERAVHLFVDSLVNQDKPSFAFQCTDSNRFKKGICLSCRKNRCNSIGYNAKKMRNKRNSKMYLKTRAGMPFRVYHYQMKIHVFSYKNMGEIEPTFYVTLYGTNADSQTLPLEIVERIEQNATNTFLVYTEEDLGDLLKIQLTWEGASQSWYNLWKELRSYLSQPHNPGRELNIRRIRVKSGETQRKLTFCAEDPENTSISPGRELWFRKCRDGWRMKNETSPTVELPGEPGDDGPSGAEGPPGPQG
Described as above. The protocol: as §1

Test [2] concerns the target T3, human [1-305]-mouse chimeric EL with C2 tag (human; mouse, UniProt Q9WVG5 306-500).
T3 construct: Heparin extract of transfected HEK293F cells; probably 97; Built here from the name of the chimera; not shown: C2 tag
T3 sequence: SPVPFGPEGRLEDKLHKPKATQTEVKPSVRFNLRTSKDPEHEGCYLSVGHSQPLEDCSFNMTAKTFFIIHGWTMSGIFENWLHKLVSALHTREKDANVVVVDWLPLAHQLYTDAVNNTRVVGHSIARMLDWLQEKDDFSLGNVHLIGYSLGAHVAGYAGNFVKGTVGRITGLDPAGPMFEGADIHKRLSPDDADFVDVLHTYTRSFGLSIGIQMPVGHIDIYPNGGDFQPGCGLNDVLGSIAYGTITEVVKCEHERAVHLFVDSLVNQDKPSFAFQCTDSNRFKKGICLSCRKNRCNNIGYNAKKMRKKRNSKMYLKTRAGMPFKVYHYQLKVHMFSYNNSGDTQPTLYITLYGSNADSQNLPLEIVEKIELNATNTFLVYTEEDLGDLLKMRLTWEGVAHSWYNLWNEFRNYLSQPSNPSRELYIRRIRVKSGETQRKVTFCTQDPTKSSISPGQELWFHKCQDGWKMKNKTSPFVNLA
In words: SPR (Biacore), EL captured by anti-C2-tag antibody on CM5 chip, antibody injected, bivalent fit. The method, then:
(§2) The binding affinities of anti-EL antibodies were measured using Biacore. […] Then, anti-EL antibodies were added and the binding affinities were calculated by bivalent fitting of BIAevaluation software.

Test [3] addresses T4, human [1-157]-mouse chimeric EL with C2 tag (human; mouse, UniProt Q9WVG5 158-500).
T4 construct: Heparin extract of transfected HEK293F cells; shifted by one: 4); Built here from the name of the chimera; not shown: C2 tag
T4 sequence: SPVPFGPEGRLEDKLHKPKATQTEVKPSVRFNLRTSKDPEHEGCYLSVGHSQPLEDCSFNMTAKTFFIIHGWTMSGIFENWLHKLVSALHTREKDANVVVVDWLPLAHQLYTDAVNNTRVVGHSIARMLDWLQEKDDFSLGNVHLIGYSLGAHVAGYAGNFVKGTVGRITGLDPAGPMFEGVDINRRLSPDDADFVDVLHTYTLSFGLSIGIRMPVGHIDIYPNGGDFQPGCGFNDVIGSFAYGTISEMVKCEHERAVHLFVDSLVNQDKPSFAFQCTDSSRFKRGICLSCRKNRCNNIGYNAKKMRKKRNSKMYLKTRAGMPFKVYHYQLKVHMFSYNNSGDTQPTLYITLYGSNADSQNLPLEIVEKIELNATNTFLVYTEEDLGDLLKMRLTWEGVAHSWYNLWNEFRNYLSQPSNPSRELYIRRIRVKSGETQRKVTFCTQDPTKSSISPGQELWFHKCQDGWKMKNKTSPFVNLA
In words: ELISA: antibody captured on anti-mouse IgG-Fc plate, C2-tagged EL heparin extract added, anti-C2-tag detection, A450 (Example 8). The protocol: as §1

Test [4] addresses T2, baboon EL (vascular endothelial lipase) …. Description: SPR (Biacore), EL captured by anti-C2-tag antibody on CM5 chip, antibody injected, bivalent fit. The method, then: as §2
On the technique in general: SPR reads the build-up and loss of mass on a sensor chip optically.

B1: 23H8 antibody (antibody, V domains shown)
VH: EVQLQQSGPELLKPGASVKISCKASGYTFTDNTIHWVKQSHGKSLEWIGHINPYYGGTNNNEKFKDKATLTVDKSSSTAYMELRSLTSEDSAIYYCARKGIYYSSPFDYWGQGTTLTVSS
VL: DIQMTQTTSSLSASLGDRVTISCRASQDINNYLNWYQQKPDGTVKLLISYTSKLHSGVPSRFSGSGSGTDYSLTISNLEREDFATYFCQQGNTLPFTFGSGTNLEIK
notes: Mouse hybridoma antibody, IgG2a
On to B1, for which the binding result with mouse EL with C2 tag was “no binding (tested: about 300 ng/mL)”.

B2: 13B3 antibody (antibody, V domains shown)
VH: EVQLQQSGPELLKPGASVKISCKASGYTFTEYTMHWVKQSHGKSLEWIGSINPYYGGTSYNEKFKDKATLTVDKSSNTAYMEFRSLTSEDCAVYYCARYGNYVGYFDYWGQGTTLTVSS
VL: ENVLTQSPAIMSASLGEKVTMSCRASSSVHYMYWYQQKSDASPKLWIYYTSNLAPGVPDRFSGSGSGNSYSLTISSMEGEDAATYYCQQFTSSPYTFGGGTKLEIK
notes: as for B1
Take B2: the binding result with mouse EL with C2 tag is recorded as “no binding (tested: about 300 ng/mL)”.

B3: 16B3 antibody (antibody, V domains shown)
VH: DVKLVESGGGLVQPGGSLKLSCTASGFTFSGYTMSWVRQTPEKRLELVAEISFARDRAFYPDTVKGRFTISRDNAKNTLYLQMSSLKSEDTAMYYCTRLGGRNHDYWYFDVWGTGTTVTVSS
VL: DIVLTQSPTSLAVSPGQRATISCRASESVEYYGTSLMQWYQQKPGQRPQLLIYAASNVESGVPARFSGSGSGTDFSLNIHPVEEDDIAVYFCQQSWKVPFTFGSGTKLEIK
notes: as for B1
Consider B3, for which, in the test with mouse EL with C2 tag, the binding result is recorded as “no binding (tested: about 300 ng/mL)”.

B4: 16E7 antibody (antibody, V domains shown)
VH: B3 VH with D1E, T23A, G31S, A54T, D56S, T97A, R102N, H104Y
VL: B3 VL with P15L, Q49K, V89M
notes: Mouse hybridoma antibody, IgG1
Regarding B4, in test [1], the “EC50 (read off the curve)” value was around 10 ng/mL. The molecule further returned a kon in test [2] of 950000 M⁻¹ s⁻¹.

B5: 53A11 antibody (antibody, V domains shown)
VH: EVQLQQSGPELLKPGASVKISCKASGYTFTDYTMHWVKQSHGKSLEWIGGINPYYGGTTYNEKFKDKATLTVDKSSSTAYMELRSLTSEDSAVYYCAKGDYYGGSYNYWGQGTTLTVSS
VL: DIVLTQSLATLSVTPGDSVSLSCRASQDISNSLHWYQQKSHESPRLLIKYASQSISGIPSRFSGSGSGTDFTLSINSVETEDFGMYFCQQSNSWPYTFGGGTKLEIK
notes: as for B1
B5: in the test with mouse EL with C2 tag, the binding result is recorded as “no binding (tested: about 300 ng/mL)”.

B6: 19E7 antibody (antibody, V domains shown)
VH: QVQLQQPGSVLVRPGASVKLSCKASGYTFTTYWMHWVKQRPGQGLEWIGEIHPYSGNNNNNEKFKGKATLTVDTSSSTAYVDLSRLTSEDSAVYYCARYDSNYVFAYWGQGTLVTVSA
VL: QIVLTQSPAIMSASPGEGVTITCSASSSVSYMHWFQQKPGTSPKLWIYSTSNLASGVPARFSGSGSGTSYSLTISRMEAEDAATYYCQQRDSYLTFGSGTKLEVK
notes: as for B1
With B6, the binding result (with mouse EL with C2 tag; in test [3]) was “no binding (tested: about 300 ng/mL)” in each case. In test [4], this molecule returned a kon of 67000 M⁻¹ s⁻¹.

B7: 55A1 antibody (antibody, V domains shown)
VH: QIHLVQSGPELKKPGETVKISCKASGYTFTNYGMNWVKQAPGKGLKWMGWINTYSGVPTYAGDFKGRFAFSLETSASTAYLQINNLKNEDTATYFCARRGYYGRRYFDVWGTGTTVTVSS
VL: DIVLTQSPASLAVSLGQRATISCKASQSVDYDVDSYMHWYQQKPGQPPKLLIYAASNLASGIPARFSGGGSGTDFTLNIHPVEEEDVATYYCQQTIEDPPTFGGGTKLEIK
notes: as for B1
As to B7, the binding result in the test with mouse EL with C2 tag is “no binding (tested: about 300 ng/mL)”.

B8: 14A1 antibody (antibody, V domains shown)
VH: QIQLVQSGPELKKPGETVKISCKASGYTFTNYGMNWVKQAPGKGLKWMGWINTYSGVPTYADDFKGRFAFSLETSASTAYLQINNFKNEDTATYFCARFSYYGRHYFDYWGQGTALTASS
VL: DIVLTQSPASLAVSLGQRATISCKASQSVDYDGDSYMNWYQQKPGQPPKLLIYAASNLKSGIPARFSGSGSGTDFTLNIHPVEEEDAATYYCQQTTDDPPWTFGGGTKLEIK
notes: as for B4
For B8, the binding result with mouse EL with C2 tag is reported as “no binding (tested: about 300 ng/mL)”.

B9: 7D4 antibody (antibody, V domains shown)
VH: B8 VH with G44D, F86L, A115T, A118V
VL: B8 VL with K49Q, K59G, Q93H, T95S
notes: as for B4
With B9, in the test with mouse EL with C2 tag, the binding result is “no binding (tested: about 300 ng/mL)”.

B10: 2D5 antibody (antibody, V domains shown)
VH: B8 VH with A61T, Y80F, F86L, A115T, A118V
VL: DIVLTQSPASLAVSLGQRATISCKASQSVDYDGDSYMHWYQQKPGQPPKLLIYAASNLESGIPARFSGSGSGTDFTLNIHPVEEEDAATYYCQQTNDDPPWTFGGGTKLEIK
notes: as for B1
For the molecule B10, in the test with mouse EL with C2 tag, the binding result is on record as “no binding (tested: about 300 ng/mL)”.

As usually defined, the EC50 (read off the curve) is the midpoint of the concentration-response curve. Low values mean higher potency in that assay, high ones lower potency in that assay. Usually kon stands for the rate constant with which the complex forms.
